Results taken from US8450280B2, “Activation of peptide prodrugs by hK2” (GenbSpera, Inc., priority 1999, dated 2013).

B1: PCl: protein C inhibitor (PCI), plasma protease inhibitor (serpin) (protein)
chain: HRHHPREMKKRVEDLHVGATVAPSSRRDFTFDLYRALASAAPSQSIFFSPVSISMSLAMLSLGAGSSTKMQILEGLGLNLQKSSEKELHRGFQQLLQELNQPRDGFQLSLGNALFTDLVVDLQDTFVSAMKTLYLADTFPTNFRDSAGAMKQINDYVAKQTKGKIVDLLKNLDSNAVVIMVNYIFFKAKWETSFNHKGTQEQDFYVTSETVVRVPMMSREDQYHYLLDRNLSCRVVGVPYQGNATALFILPSEGKMQQVENGLSEKTLRKWLKMFKKRQLELYLPKFSIEGSYQLEKVLPSLGISNVFTSHADLSGISNHSNIQVSEMVHKAVVEVDESGTRAAAATGTIFTFRSARLNSQRLVFNRPFLMFIVDNNILFLGKVNRP
B2: ACT: α1-antichymotrypsin purified from human blood plasma (protein)
chain: HPNSPLDEENLTQENQDRGTHVDLGLASANVDFAFSLYKQLVLKAPDKNVIFSPLSISTALAFLSLGAHNTTLTEILKGLKFNLTETSEAEIHQSFQHLLRTLNQSSDELQLSMGNAMFVKEQLSLLDRFTEDAKRLYGSEAFATDFQDSAAAKKLINDYVKNGTRGKITDLIKDLDSQTMMVLVNYIFFKAKWEMPFDPQDTHQSRFYLSKKKWVMVPMMSLHHLTIPYFRDEELSCTVVELKYTGNASALFILPDQDKMEEVEAMLLPETLKRWRDSLEFREIGELYLPKFSISRDYNLNDILLQLGIEEAFTSKADLSGITGARNLAVSQVVHKAVLDVFEEGTEASAATAVKITLLSALVETRTIVRFNRPFLMIIVPTDTQNIFFMSKVTNPKQA
B3: SLPI: protease inhibitor present in the prostate (protein)
chain: SGKSFKAGVCPPKKSAQCLRYKKPECQSDWQCPGKKRCCPDTCGIKCLDPVDTPNPTRRKPGKCPVTYGQCLMLNPPNFCEMDGQCKRDLKCCMGMCGKSCVSPVKA

Target: T1, hK2 (Homo sapiens, UniProt P20151)
T1 construct: made in house
T1 sequence (P20151 25-261): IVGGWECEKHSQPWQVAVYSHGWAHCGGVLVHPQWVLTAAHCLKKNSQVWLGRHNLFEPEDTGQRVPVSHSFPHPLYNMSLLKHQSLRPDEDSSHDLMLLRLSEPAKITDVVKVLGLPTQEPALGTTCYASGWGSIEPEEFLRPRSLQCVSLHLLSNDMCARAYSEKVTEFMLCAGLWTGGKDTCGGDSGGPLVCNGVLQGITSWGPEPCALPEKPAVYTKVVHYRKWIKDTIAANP
Test: Inhibition of hK2 by protease inhibitors (substrate H-Pro-Phe-Arg-AMC)
Type: biochemical
Details: for Activity (%) of hK2, percentage of inhibitor-free control: 10 minutes of incubation, 8.3 nM hK2, 90 μM substrate
Protocol: Activity of hK2 (1.6 pmol) was monitored using the substrate H-Pro-Phe-Arg-AMC (SEQ ID NO: 55) (90 μM). Inhibitors, at commonly used concentrations, and hK2 (8.3 nM) were mixed and proteolysis of 90 μM H-Pro-Phe-Arg-AMC (SEQ ID NO: 55) was followed up to 20 minutes, starting directly or 10 minutes after mixing the enzyme with various inhibitors. Inhibition was evaluated by comparison with […] controls.
The proteolytic activity is expressed in percentage of inhibitor-free control after 10 minutes of incubation.
Therefore, PPACK can be used to obtain fast irreversible inhibition of hK2.

Row | Molecule | Activity (%) of hK2, percentage of inhibitor-free control (inhibitor 0.016 μM) | Activity (%) of hK2, percentage of inhibitor-free control (inhibitor 0.08 μM) | inhibition of the hK2 activity (in words) (100-fold molar excess, 20 minute measurement time) | Activity (%) of hK2, percentage of inhibitor-free control (inhibitor 0.8 μM) | inhibition of hK2 (in words) (8 nM hK2, 90 μM substrate) | Activity (%) of hK2, percentage of inhibitor-free control (inhibitor 4 μM)
1 | B1 | 50% | 0% |  |  |  | 
2 | B2 |  |  | no inhibition | 100% |  | 
3 | B3 |  | 92% |  |  | inhibited hK2 weakly | 35%
